The values below come from patent US20220177587A1, “METHODS AND USES OF VARIANT CD80 FUSION PROTEINS AND RELATED CONSTRUCTS” (Alpine Immune Sciences, Inc., priority 2018, published 2022).

Positions count from the first letter of the chain named. Names may count otherwise.

B1: variant CD80 IgV-Fc (inert) H18Y/A26P/E35D/M47V/V68M/A71G (Fc fusion)
chain: VIHVTKEVKEVATLSCGYNVSVEELPQTRIYWQKDKKMVLTMMSGDVNIWPEYKNRTIFDITNNLSIMILGLRPSDEGTYECVVLKYEKDAFKREHLAEVTLSVKAD
B2: CD80 ECD (SEQ ID NO:2)-Fc (inert) with GSG4S linker (Fc fusion)
chain: VIHVTKEVKEVATLSCGHNVSVEELAQTRIYWQKEKKMVLTMMSGDMNIWPEYKNRTIFDITNNLSIVILALRPSDEGTYECVVLKYEKDAFKREHLAEVTLSVKADFPTPSISDFEIPTSNIRRIICSTSGGFPEPHLSWLENGEELNAINTTVSQDPETELYAVSSKLDFNMTTNHSFMCLIKYGHLRVNQTFNWNTTKQEHFPDNGSGGGGS
B3: variant CD80 IgV-Fc V22L/Q27H/E35D/M47I/A71G (Fc fusion)
chain: B1 chain with Y18H, V22L, P26A, Q27H, V47I, M68V
B4: variant CD80 IgV-Fc E35D/T41S/M43I/M47L/A71G (Fc fusion)
chain: B1 chain with Y18H, P26A, T41S, M43I, V47L, M68V
B5: variant CD80 IgV-Fc Q33L/E35D/T41S/M47V (Fc fusion)
chain: B1 chain with Y18H, P26A, Q33L, T41S, M68V, G71A
B6: variant CD80 IgV-Fc V22A/E35D/V68E/A71D (Fc fusion)
chain: B1 chain with Y18H, V22A, P26A, V47M, M68E, G71D
B7: variant CD80 IgV-Fc E35D/A71G (Fc fusion)
chain: B1 chain with Y18H, P26A, V47M, M68V
B8: variant CD80 IgV-Fc E35D/D46E/M47V/A71D/D90G (Fc fusion)
chain: B1 chain with Y18H, P26A, D46E, M68V, G71D, D90G
B9: variant CD80 IgV-Fc H18Y/A26E/Q33L/E35D/M47L/L85Q (Fc fusion)
chain: B1 chain with P26E, Q33L, V47L, M68V, G71A, L85Q
B10: variant CD80 IgV-Fc H18Y/E35D/N48K (Fc fusion)
chain: B1 chain with P26A, V47M, N48K, M68V, G71A
B11: variant CD80 IgV-Fc A26E/Q33L/E35D/M47L (Fc fusion)
chain: B1 chain with Y18H, P26E, Q33L, V47L, M68V, G71A
B12: variant CD80 IgV-Fc E35D/M47V/A71G/E88D (Fc fusion)
chain: B1 chain with Y18H, P26A, M68V, E88D
B13: variant CD80 IgV-Fc E35D/T41S/M43I/A71G/D90G (Fc fusion)
chain: B1 chain with Y18H, P26A, T41S, M43I, V47M, M68V, D90G
B14: variant CD80 IgV-Fc V22D/E35D/M47L/L85Q (Fc fusion)
chain: B1 chain with Y18H, V22D, P26A, V47L, M68V, G71A, L85Q
B15: variant CD80 IgV-Fc H18Y/Q33L/E35D/M47I (Fc fusion)
chain: B1 chain with P26A, Q33L, V47I, M68V, G71A
B16: variant CD80 IgV-Fc H18Y/A26E/E35D/M47L/L85Q/D90G (Fc fusion)
chain: B1 chain with P26E, V47L, M68V, G71A, L85Q, D90G
B17: variant CD80 IgV-Fc A26E/Q33L/E35D/M47L/L85Q (Fc fusion)
chain: B1 chain with Y18H, P26E, Q33L, V47L, M68V, G71A, L85Q
B18: variant CD80 IgV-Fc H18Y/E35D/M47L (Fc fusion)
chain: B1 chain with P26A, V47L, M68V, G71A
B19: variant CD80 IgV-Fc A26E/Q33R/E35D/M47L/L85Q/K86E (Fc fusion)
chain: B1 chain with Y18H, P26E, Q33R, V47L, M68V, G71A, L85Q, K86E
B20: variant CD80 IgV-Fc A26E/Q33R/E35D/M47L/L85Q (Fc fusion)
chain: B1 chain with Y18H, P26E, Q33R, V47L, M68V, G71A, L85Q
B21: variant CD80 IgV-Fc Q33L/E35D/M47I (Fc fusion)
chain: B1 chain with Y18H, P26A, Q33L, V47I, M68V, G71A
B22: variant CD80 IgV-Fc E35D/D46V/M47L/V68M/L85Q/E88D (Fc fusion)
chain: B1 chain with Y18H, P26A, D46V, V47L, G71A, L85Q, E88D
B23: variant CD80 IgV-Fc Q33K/E35D/M47V/K89E/K93R (Fc fusion)
chain: B1 chain with Y18H, P26A, Q33K, M68V, G71A, K89E, K93R
B24: variant CD80 IgV-Fc E35D/T41S/M43I/M47V/A71G (Fc fusion)
chain: B1 chain with Y18H, P26A, T41S, M43I, M68V
B25: variant CD80 IgV-Fc E35D/M47V/A71G (Fc fusion)
chain: B1 chain with Y18H, P26A, M68V
B26: variant CD80 IgV-Fc E35D/K37E/M47V/N48D/L85Q/D90N (Fc fusion)
chain: B1 chain with Y18H, P26A, K37E, N48D, M68V, G71A, L85Q, D90N
B27: variant CD80 IgV-Fc M47L/L85Q (Fc fusion)
chain: B1 chain with Y18H, P26A, D35E, V47L, M68V, G71A, L85Q
B28: variant CD80 IgV-Fc E35D/D46E/M47V/A71D (Fc fusion)
chain: B1 chain with Y18H, P26A, D46E, M68V, G71D
B29: variant CD80 IgV-Fc E35D/M47V/N48T/L85Q (Fc fusion)
chain: B1 chain with Y18H, P26A, N48T, M68V, G71A, L85Q
B30: variant CD80 IgV-Fc V22D/E35D/M47L/L70M/L97Q (Fc fusion)
chain: B1 chain with Y18H, V22D, P26A, V47L, M68V, L70M, G71A, L97Q
B31: variant CD80 IgV-Fc E35D/M47L/A71G/L85Q (Fc fusion)
chain: B1 chain with Y18H, P26A, V47L, M68V, L85Q

The first assay concerns the target CD28 (human) (UniProt P10747). Description: flow cytometry, Jurkat cells (CD28). Background: Flow cytometry measures light scatter and fluorescence of single cells or particles in a stream.
In the case of B1, the MFI at 33.3 nM turned out to be 6910 MFI.
Still for that read-out and setting: the figure for B2 is 37 MFI.

The next assay addresses human CTLA-4 (human) (UniProt P16410). Description: flow cytometry, CHO cells expressing huCTLA4.
As to B3, the MFI at 33.3 nM came out at 152000 MFI.
Same read-out and setting: the figure for B4 is 209000 MFI; for B5 it is 14500 MFI.
In turn, B6 returned an MFI at 33.3 nM of 437000 MFI.
The same measure, in the same setting: the figure for B7 is 184000 MFI; for B8 it is 275000 MFI; for B9 it is 2090 MFI.
The same measure, in the same setting: the figure for B10 is 261000 MFI; for B11 it is 1320 MFI; for B12 it is 212000 MFI.
Still for that read-out and setting: the figure for B13 is 208000 MFI; for B14 it is 256000 MFI.
B15 displayed an MFI at 33.3 nM of 5540 MFI.
B16 showed an MFI at 33.3 nM of 231000 MFI.
Same read-out and setting: the figure for B17 is 1170 MFI; for B18 it is 284000 MFI; for B19 it is 1280 MFI.
In turn, B20 came in with an MFI at 33.3 nM of 1280 MFI.
B21 came in with an MFI at 33.3 nM of 15900 MFI.

The next assay deals with human PD-L1 (human) (UniProt Q9NZQ7). The assay is described as follows: flow cytometry, CHO cells expressing huPD-L1.
human PD-L1 (human), sequence (Q9NZQ7 19-290): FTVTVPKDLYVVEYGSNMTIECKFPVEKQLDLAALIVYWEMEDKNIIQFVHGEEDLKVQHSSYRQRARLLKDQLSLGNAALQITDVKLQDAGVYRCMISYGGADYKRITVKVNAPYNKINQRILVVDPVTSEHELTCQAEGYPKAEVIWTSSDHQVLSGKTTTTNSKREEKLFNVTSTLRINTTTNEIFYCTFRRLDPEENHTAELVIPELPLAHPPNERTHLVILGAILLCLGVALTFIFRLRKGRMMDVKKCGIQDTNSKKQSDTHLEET
In turn, B3 registered an MFI at 33.3 nM of 43800 MFI.
Turning to B5, the MFI at 33.3 nM is 43800 MFI.
On the same count and under the same terms, the figure for B6 is 1350 MFI.
Still for that read-out and setting: the figure for B22 is 137000 MFI.
Still for that read-out and setting: the figure for B7 is 34100 MFI.
In turn, B23 gave an MFI at 33.3 nM of 39100 MFI.
With B8, the MFI at 33.3 nM stood at 32400 MFI.
B24 came in with an MFI at 33.3 nM of 44400 MFI.
The same measure, in the same setting: the figure for B9 is 76600 MFI; for B25 it is 36200 MFI.
Consider B26, for which the MFI at 33.3 nM came to 26500 MFI.
On the same count and under the same terms, the figure for B27 is 5800 MFI; for B11 it is 60900 MFI.
Still for that read-out and setting: the figure for B28 is 549 MFI; for B12 it is 37100 MFI; for B15 it is 47800 MFI.
The same measure, in the same setting: the figure for B16 is 52400 MFI.
In the case of B29, the MFI at 33.3 nM stood at 35500 MFI.
On the same count and under the same terms, the figure for B17 is 62700 MFI.
For B18, the MFI at 33.3 nM is 44200 MFI.
As to B19, the MFI at 33.3 nM stood at 76000 MFI.
B20: the MFI at 33.3 nM was determined as 81500 MFI.
Still for that read-out and setting: the figure for B21 is 37400 MFI.

A further assay addresses CD28 (human) (UniProt P10747). The assay is described as follows: flow cytometry, Jurkat/IL2 reporter cells (CD28).
B3 showed an MFI at 33.3 nM of 7270 MFI.
Same read-out and setting: the figure for B4 is 3100 MFI; for B30 it is 527 MFI.
B31 had an MFI at 33.3 nM of 1440 MFI.
Still for that read-out and setting: the figure for B24 is 2840 MFI; for B25 it is 6360 MFI; for B27 it is 88.1 MFI.
The molecule B12 registered an MFI at 33.3 nM of 6240 MFI.
B14 yielded an MFI at 33.3 nM of 542 MFI.
For the molecule B16, the MFI at 33.3 nM came out at 3540 MFI.
As for B29, the MFI at 33.3 nM came to 692 MFI.

Another assay concerns the target human PD-L1 (human) (UniProt Q9NZQ7). Description: flow cytometry, CHO cells stably expressing PD-L1.
The molecule B1 yielded an MFI at 33.3 nM of 51500 MFI.
Same read-out and setting: the figure for B2 is 35 MFI.

A further assay has as its target CD28 (human) (UniProt P10747). The assay is described as follows: flow cytometry, Jurkat/IL2 reporter cells (endogenous CD28).
B5: the MFI at 33.3 nM was determined as 287 MFI.
Still for that read-out and setting: the figure for B6 is 14000 MFI.
Still for that read-out and setting: the figure for B23 is 276 MFI; for B9 it is 272 MFI.
Molecule B11 gave an MFI at 33.3 nM of 271 MFI.
On to B15, for which the MFI at 33.3 nM was 295 MFI.
The molecule B17 came in with an MFI at 33.3 nM of 274 MFI.
In the case of B18, the MFI at 33.3 nM came out at 5070 MFI.
B19 returned an MFI at 33.3 nM of 275 MFI.
Still for that read-out and setting: the figure for B20 is 264 MFI.
Molecule B21 showed an MFI at 33.3 nM of 282 MFI.

A further assay deals with human CTLA-4 (human) (UniProt P16410). Description: flow cytometry, CHO cells expressing huCTLA4; MFI ratio to WT CD80 ECD-Fc (R&D).
human CTLA-4 (human), sequence (P16410 36-223): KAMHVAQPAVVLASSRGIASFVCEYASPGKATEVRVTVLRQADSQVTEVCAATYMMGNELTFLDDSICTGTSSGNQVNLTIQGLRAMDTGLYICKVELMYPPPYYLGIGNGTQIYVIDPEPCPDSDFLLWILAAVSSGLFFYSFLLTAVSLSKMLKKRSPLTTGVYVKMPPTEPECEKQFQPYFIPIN
With B5, the Fold change to WT CD80 was 0.08 fold.
B9: the Fold change to WT CD80 is 0.01 fold.
Still for that read-out and setting: the figure for B11 is 0.01 fold; for B15 it is 0.03 fold; for B17 it is 0.01 fold.
Same read-out and setting: the figure for B18 is 1.59 fold; for B19 it is 0.01 fold; for B20 it is 0.01 fold.
Take B21: the Fold change to WT CD80 stood at 0.09 fold.

For the next assay, the target named is human PD-L1 (human) (UniProt Q9NZQ7). Description: flow cytometry, CHO cells expressing huPD-L1; MFI ratio to WT CD80 ECD-Fc (R&D).
For B5, the Fold change to WT stood at 5.52 fold.
Still for that read-out and setting: the figure for B9 is 9.64 fold; for B11 it is 7.67 fold.
On to B15, for which the Fold change to WT is 6.02 fold.
B17: the Fold change to WT was 7.89 fold.
In the case of B18, the Fold change to WT turned out to be 5.56 fold.
As for B19, the Fold change to WT is 9.56 fold.
Consider B20, for which the Fold change to WT was found to be 10.3 fold.
On to B21, for which the Fold change to WT is 4.7 fold.

Another assay shares this target. Description: flow cytometry; binding to PD-L1 cells against binding of the same variant to CD28 cells.
B5: the Ratio of PDL1:CD28 turned out to be 153.
With B9, the Ratio of PDL1:CD28 came to 282.
The same measure, in the same setting: the figure for B11 is 225; for B15 it is 162; for B17 it is 229.
Same read-out and setting: the figure for B18 is 9; for B19 it is 276.
On to B20, for which the Ratio of PDL1:CD28 stood at 309.
Still for that read-out and setting: the figure for B21 is 132.

For another assay, the target named is CD28 (human) (UniProt P10747). The assay is described as follows: flow cytometry, Jurkat/IL2 reporter cells (endogenous CD28); MFI ratio to WT CD80 ECD-Fc (R&D).
On to B5, for which the Fold change to WT is 0.04 fold.
As to B9, the Fold change to WT turned out to be 0.04 fold.
The same measure, in the same setting: the figure for B11 is 0.04 fold; for B15 it is 0.04 fold.
Take B17: the Fold change to WT was determined as 0.04 fold.
On the same count and under the same terms, the figure for B18 is 0.66 fold; for B19 it is 0.04 fold.
Consider B20, for which the Fold change to WT is 0.03 fold.
The same measure, in the same setting: the figure for B21 is 0.04 fold.
